From the supplement of paper PMC10724198
± gives the standard deviation of the averaged measurements.

Tested on: Saccharomyces cerevisiae
Assay: protein stability index of tFT-peptide fusion (C-terminal peptide) (PSI (0-1 scale)); higher = more stable (slower turnover)
Settings: genetic background: wild type; temperature: 30 C
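Also: PSI is a weighted mean of sequencing reads over stability bins, variants kept only with over 10 reads, mCherry proximal and sfGFP distal, peptide attached via GGGS linker.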

PLIYFLASNSRF gave a protein stability index of 0.713 ± 0.069.

In the case of CLSPAPLPPFFY, the protein stability index is reported as 0.6724 ± 0.0018.

Sequence ATIRNSMPYHFN has a protein stability index of 0.646 ± 0.044.

ERLRSDSLSYDI showed a protein stability index of 0.714 ± 0.052.

YVARERWEGCRI showed a protein stability index of 0.7 ± 0.0077.

PPSQLPPPPASD showed a protein stability index of 0.746 ± 0.2.

In the case of LGSNLVCFLCVS, the protein stability index is reported as 0.566 ± 0.053.

LGFSDIMSSLVV showed a protein stability index of 0.801 ± 0.16.

DNKGKDEESERR showed a protein stability index of 0.709 ± 0.038.

Work on VRRAGVGEGITG yielded a protein stability index of 0.671 ± 0.052.

Sequence FHGGRGLLLGMN has a protein stability index of 0.649 ± 0.077.

PTGLTNPPPCPQ showed a protein stability index of 0.716 ± 0.11.

Sequence GRGSGRCVVYWG has a protein stability index of 0.651 ± 0.069.

In the case of PPPTAPSLSSPS, the protein stability index is reported as 0.688 ± 0.047.

PPLPPPAPSFPT showed a protein stability index of 0.684 ± 0.06.

For RMEPPLCIISPK, the protein stability index was 0.6605 ± 0.0065.

For KKEKQKKKIKTK, the protein stability index was 0.703 ± 0.055.

Sequence ICFGCLSWAGSW has a protein stability index of 0.554 ± 0.057.

PRCVRFPPVTLL gave a protein stability index of 0.7393 ± 0.0036.

STHTASAIQWST gave a protein stability index of 0.661 ± 0.025.

RSTSPCPPTVSP showed a protein stability index of 0.641 ± 0.091.

With QVFFDTSDHRMG the protein stability index was 0.72 ± 0.029.

PPAPPPASPGLV gave a protein stability index of 0.7017 ± 0.0009.

With GALSDSLRVYTP the protein stability index was 0.688 ± 0.041.

GGGGAAGWGAVG gave a protein stability index of 0.688 ± 0.015.

For TGEVPPPRCEGE, the protein stability index was 0.638 ± 0.014.

With PPPLPAAHFSTP the protein stability index was 0.663 ± 0.022.

Sequence FIPPPLALPFYS has a protein stability index of 0.674 ± 0.056.

LPAPGRPSPCRL gave a protein stability index of 0.809 ± 0.041.

For LSDFFLDREGRV, the protein stability index was 0.654 ± 0.034.

For RHAMNPNTSRVL, the protein stability index was 0.601 ± 0.042.

Sequence NPMSLTTKRKTE has a protein stability index of 0.651 ± 0.11.

LPDPPLSPPPVR was tested, and the protein stability index was 0.675 ± 0.016.

In the case of GCVGGGDWRFNV, the protein stability index is reported as 0.566 ± 0.027.

In the case of YDSGNWPGFRCQ, the protein stability index is reported as 0.73 ± 0.055.

With LFCVSGSRPLTF the protein stability index was 0.714 ± 0.034.

LLPPTLHPPHLP showed a protein stability index of 0.751 ± 0.0096.

In the case of GYVVVGGGGGLG, the protein stability index is reported as 0.717 ± 0.039.

Work on MVYLSSQYSATT yielded a protein stability index of 0.661 ± 0.039.

KVDRREGSRGGG was tested, and the protein stability index was 0.6816 ± 0.004.

For GLSSVVWSGGLC, the protein stability index was 0.6222 ± 0.0047.

GCGAGEVWGVGG gave a protein stability index of 0.674 ± 0.014.

ESALPFLYSLSG was tested, and the protein stability index was 0.703 ± 0.021.

GGREWWLSDGTV gave a protein stability index of 0.75 ± 0.033.

In the case of DLSLQSLRSPIT, the protein stability index is reported as 0.672 ± 0.022.

With EGVCEIEMRGSR the protein stability index was 0.788 ± 0.021.

IGFHSGLFYYHC was tested, and the protein stability index was 0.594 ± 0.056.

RKKFKKQKKKNI was tested, and the protein stability index was 0.703 ± 0.073.

GADGGLVSLGVS showed a protein stability index of 0.743 ± 0.026.

Sequence VELEPPVCVFLL has a protein stability index of 0.6391 ± 0.0017.

FFYYPSFLPSPL gave a protein stability index of 0.685 ± 0.011.

With NIKPEDRNSTNA the protein stability index was 0.633 ± 0.087.

Sequence PYLLDTPPPSTP has a protein stability index of 0.769 ± 0.043.

For QADHGSSPHSIG, the protein stability index was 0.717 ± 0.051.

In the case of RKRVKRTIYESK, the protein stability index is reported as 0.635 ± 0.1.

HRVRVRVYTCGF gave a protein stability index of 0.634 ± 0.05.

PPRVVPDISTSL showed a protein stability index of 0.699 ± 0.039.

In the case of SHRLPPPPPPPS, the protein stability index is reported as 0.758 ± 0.14.

In the case of PHDPHNTATNQG, the protein stability index is reported as 0.721 ± 0.016.

Work on GPSSVGWLFVVC yielded a protein stability index of 0.553 ± 0.039.

With DVAYSSSNAVHR the protein stability index was 0.669 ± 0.045.

Work on PSVRQSSPRFLH yielded a protein stability index of 0.667 ± 0.067.

Sequence FVGACCGGSVEG has a protein stability index of 0.721 ± 0.036.

VHRKGGRLEILG showed a protein stability index of 0.64 ± 0.033.

APILLFIEPLPP was tested, and the protein stability index was 0.5631 ± 0.0037.

Work on NQEPRVSFCRDS yielded a protein stability index of 0.716 ± 0.044.

Sequence VWGGNGRAASQL has a protein stability index of 0.742 ± 0.019.

Sequence GHEQIISIKGIK has a protein stability index of 0.73 ± 0.049.

EVLLVHWINPNA gave a protein stability index of 0.687 ± 0.047.

TRSGGNGYERVC showed a protein stability index of 0.667 ± 0.03.

GFPASVCGCMLW showed a protein stability index of 0.651 ± 0.047.

Sequence GASVSCQWFCGA has a protein stability index of 0.694 ± 0.015.

Sequence VVGRLRGNWGSI has a protein stability index of 0.745 ± 0.039.

Sequence GWLIWRVYGGGG has a protein stability index of 0.654 ± 0.014.

With AILSDGLTHWGL the protein stability index was 0.736 ± 0.058.

With TSGRTLVNDKCT the protein stability index was 0.716 ± 0.012.

With WRLAGRRGIQCD the protein stability index was 0.7 ± 0.017.

Work on WMSLLEFGSLCG yielded a protein stability index of 0.748 ± 0.15.

Work on PIPTQYPPPKAP yielded a protein stability index of 0.675 ± 0.069.

Sequence LSTPASVLLSSG has a protein stability index of 0.682 ± 0.011.

Sequence KRLNRVHRSTKV has a protein stability index of 0.687 ± 0.021.

EHRPCQGVMYII gave a protein stability index of 0.522 ± 0.0026.

RRPPALDSLRHY gave a protein stability index of 0.661 ± 0.011.

Work on KSRTRNNVSRVG yielded a protein stability index of 0.6703 ± 0.0062.

GSFPNSADQTFD gave a protein stability index of 0.659 ± 0.014.

In the case of RSAPPPPPLRLD, the protein stability index is reported as 0.789 ± 0.062.

Sequence AGRRGVNGGGWG has a protein stability index of 0.686 ± 0.039.

For LISADTFVHFND, the protein stability index was 0.725 ± 0.02.

With PPSSGPPSPSSL the protein stability index was 0.578 ± 0.095.

IRRGRQGGEHEK gave a protein stability index of 0.702 ± 0.097.

With QGSSLLPLYFPD the protein stability index was 0.622 ± 0.013.

With HAQRTSSRRAKS the protein stability index was 0.711 ± 0.019.

GGVGGVRLVVSR gave a protein stability index of 0.684 ± 0.064.

Sequence LVDHLEMSTTSL has a protein stability index of 0.724 ± 0.017.

ATNCERLHNPHL gave a protein stability index of 0.727 ± 0.0034.

Work on AGGWLGAEGCGG yielded a protein stability index of 0.78 ± 0.033.

Sequence YSGFVVGASDTL has a protein stability index of 0.601 ± 0.18.

VITAYHSLTYGA was tested, and the protein stability index was 0.6878 ± 0.0038.

Sequence PPFPPLPSPFTS has a protein stability index of 0.708 ± 0.018.

In the case of QRKKKDRTMKKR, the protein stability index is reported as 0.631 ± 0.026.

SGFLLSPPRPSF gave a protein stability index of 0.693 ± 0.042.
